Some targets named below: eNKG2D4 V|Y; eNKG2D14 L|Y; eNKG2D3 T|Y; eNKG2D2 S|Y.
Assay in all cases: ELISA
A general note: ELISA stands for enzyme-linked immunosorbent assay.

In assay [1] the target is T1, Fc-NKG2D.wt (natural human NKG2D ectodomain fused to the C-terminus of human IgG1 Fc).
In assay [2] the target is T1, Fc-NKG2D.wt (natural human NKG2D …). The source holds these as a separate data set.
Assay [3] shares this target. The source holds these as a separate data set.

The values below come from patent US20250109178A1 (published 2025).

Where two headings read alike, the source gives them in different places.

B1: rituximab-ULBP2.AA MicAbody (bispecific antibody)
heavy: not shown
light: QIVLSQSPAILSASPGEKVTMTCRASSSVSYIHWFQQKPGSSPKPWIYATSNLASGVPVRFSGSGSGTSYSLTISRVEAEDAATYYCQQWTSNPPTFGGGTKLEIKTVAAPSVFIFPPSDEQLKSGTASVVCLLNNFYPREAKVQWKVDNALQSGNSQESVTEQDSKDSTYSLSSTLTLSKADYEKHKVYACEVTHQGLSSPVTKSFNRGECAPTSSSGGGGSEPHSLSYDITVIPKFRPGPRWCAVQGQVDEKTFLHYDCGNKTVTPVSPLGKKLNVTTAWKAQNPVLREVVDILTEQLWDIQLENYTPKEPLTLQARMSCEQKAEGHSSGSWQFSFDGQIFLLFDSEKRMWTTVHPGARKMKEKWENDKVVATMFWSWSMGDCIGWLEDFLMGMDSTLEPS
By EC50 is commonly meant the concentration needed to bring the measured effect to its halfway point. Read a high EC50 as lower potency in that assay. For the molecule B1, the EC50 in assay [1] was determined as 655 nM.

B2: rituximab-ULBP2.AB MicAbody (bispecific antibody)
heavy: not shown
light: QIVLSQSPAILSASPGEKVTMTCRASSSVSYIHWFQQKPGSSPKPWIYATSNLASGVPVRFSGSGSGTSYSLTISRVEAEDAATYYCQQWTSNPPTFGGGTKLEIKTVAAPSVFIFPPSDEQLKSGTASVVCLLNNFYPREAKVQWKVDNALQSGNSQESVTEQDSKDSTYSLSSTLTLSKADYEKHKVYACEVTHQGLSSPVTKSFNRGECAPTSSSGGGGSEPHSLSYDITVIPKFRPGPRWCAVQGQVDEKTFLHYDCGNKTVTPVSPLGKKLNVTTAWKAQNPVLREVVDILTEQLWDIQLENYTPKEPLTLQARMSCEQKAEGHSSGSWQFSFDGQIFLLFDSEKRMWTTVHPGARKMKEKWENDKVVATLMWQWSMGDCIGWLEDFLMGMDSTLEPS
The molecule B2 had an EC50 in assay [1] of 389 nM.

B3: rituximab-ULBP2.C MicAbody (bispecific antibody)
heavy: not shown
light: QIVLSQSPAILSASPGEKVTMTCRASSSVSYIHWFQQKPGSSPKPWIYATSNLASGVPVRFSGSGSGTSYSLTISRVEAEDAATYYCQQWTSNPPTFGGGTKLEIKTVAAPSVFIFPPSDEQLKSGTASVVCLLNNFYPREAKVQWKVDNALQSGNSQESVTEQDSKDSTYSLSSTLTLSKADYEKHKVYACEVTHQGLSSPVTKSFNRGECAPTSSSGGGGSEPHSLSYDITVIPKFRPGPRWCAVQGQVDEKTFLHYDCGNKTVTPVSPLGKKLNVTTAWKAQNPVLREVVDILTEQLWDIQLENYTPKEPLTLQARMSCEQKAEGHSSGSWQFSFDGQIFLLFDSEKRMWTTVHPGARKMKEKWENDKVVATILWQTSMGDCIGWLEDFLMGMDSTLEPS
In turn, B3 gave an EC50 in assay [1] of 130 nM.

B4: rituximab-ULBP2.S3 MicAbody (bispecific antibody)
heavy: not shown
light: QIVLSQSPAILSASPGEKVTMTCRASSSVSYIHWFQQKPGSSPKPWIYATSNLASGVPVRFSGSGSGTSYSLTISRVEAEDAATYYCQQWTSNPPTFGGGTKLEIKRTVAAPSVFIFPPSDEQLKSGTASVVCLLNNFYPREAKVQWKVDNALQSGNSQESVTEQDSKDSTYSLSSTLTLSKADYEKHKVYACEVTHQGLSSPVTKSFNRGECAPTSSSGGGGSEPHSLSYDITVIPKFRPGPRWCAVQGQVDEKTFLHYDCGNKTVTPVSPLGKKLNVTTAWKAQNPVLREVVDILTEQLWDIQLENYTPKEPLTLQARMSCEQKAEGHSSGSWQFSFDGQIFLLFDSEKRMWTTVHPGARKMKEKWENDKVVATKLYLWSMGDCIGWLEDFLMGMDSTLEPS
For B4, in assay [2], a half-maximal effect (EC50) was put at 52.7 nM.

B5: ULBP2.wt rituximab-MicAbody (bispecific antibody)
heavy: not shown
light: QIVLSQSPAILSASPGEKVTMTCRASSSVSYIHWFQQKPGSSPKPWIYATSNLASGVPVRFSGSGSGTSYSLTISRVEAEDAATYYCQQWTSNPPTFGGGTKLEIKRTVAAPSVFIFPPSDEQLKSGTASVVCLLNNFYPREAKVQWKVDNALQSGNSQESVTEQDSKDSTYSLSSTLTLSKADYEKHKVYACEVTHQGLSSPVTKSFNRGECAPTSSSGGGGSEPHSLSYDITVIPKFRPGPRWCAVQGQVDEKTFLHYDCGNKTVTPVSPLGKKLNVTTAWKAQNPVLREVVDILTEQLRDIQLENYTPKEPLTLQARMSCEQKAEGHSSGSWQFSFDGQIFLLFDSEKRMWTTVHPGARKMKEKWENDKVVAMSFHYFSMGDCIGWLEDFLMGMDSTLEPS
Consider B5, for which the EC50 in assay [3] amounted to 1.41 nM; in assay [2], 1.02 nM.

B6: ULBP2.wt (bispecific antibody)
heavy: not shown
light: QIVLSQSPAILSASPGEKVTMTCRASSSVSYIHWFQQKPGSSPKPWIYATSNLASGVPVRFSGSGSGTSYSLTISRVEAEDAATYYCQQWTSNPPTFGGGTKLEIKRTVAAPSVFIFPPSDEQLKSGTASVVCLLNNFYPREAKVQWKVDNALQSGNSQESVTEQDSKDSTYSLSSTLTLSKADYEKHKVYACEVTHQGLSSPVTKSFNRGECAPTSSSGGGGSEPHSLSYDITVIPKFRPGPRWCAVQGQVDEKTFLHYDCGNKTVTPVSPLGKKLNVTTAWKAQNPVLREVVDILTEQLRDIQLENYTPKEPLTLQARMSCEQKAEGHSSGSWQFSFDGQIFLLFDSEKRMWTTVHPGARKMKEKWENDKVVAMSFHYFSMGDCIGWLEDFLMGMDSTLEPS
On to B6, for which the EC50 with eNKG2D4 V|Y was 35.8 nM; with eNKG2D14 L|Y, 87.6 nM; in the assay with eNKG2D3 T|Y, 31.1 nM; with eNKG2D2 S|Y, 34.8 nM.
